For 21 sequences, protein production results are on record in a protein production outcome set (Wang et al. 2014).

This data set can be described thus: label from the status in PepcDB records.
With “MEKSLETVPGLDLSGEDIEMYYQYVRFVDRFLRFNRNYQIEYFKLSYPGDGSSEREVDLLKRWIDTVIQLKVKDLDFFDYSWEWGFDNFQLPSTIYICESLVSLKLSTVTLPSVKSVSLPFLRVLKLGAVKFADHLDLETLISGCTALETLAIRFFDRVQVLQVSSQSLLSFTHVAPKLVFTHAVRKPLAEKDLSIVIDAPRLEYLKLSDHQTSSFIIKNPGSLVAVDIDINLSSGFDSRNMIRDFLVGISSVKNMTISSIILKFYDYRFKMLPTFLEICPNLKSLILKSTEELGIKESSMFSGPQDFLPSLEYVEMKMPLKKGLLLEIRMLVGYFLEKATILKKLTLCLDDYRKRKESLIPRILAIPRISTSCEVVVL”, the protein production result was “failed”.

For the sequence “VSKAVQYMAKRRIGALIVFEKETGLQDYIETGIPMNSDISQELLTNVFIPNTPLHDGAMIIQGSKIAVAASYLPLSDSVKISKSLGTRHRAAVGISEVSDAFTVVVSEETGDISVTFDGKLRRDISKDVFEELLAEHWFGAHFQKKGVNS”, the protein production entry is reported as “not failed”.

As for “MNTEPANVEDKLPMNILVLGSDEKQGGRSDTIMLVHIQKDFQPIVISIPRDTRVKVEGIKGYSKINAAYAYGKSKLAVKTVEDILGIKIDKYVVVNYEAVEKIVDLVGGVDVEVPFHLYYVDTTPGKELYINIPAGLQHLDGKKAVEFLRWRHNSNGKEYGRGGDLGRIEMQRKLLYALIEKMLKPQNIVRLPLIVQTVSKYTDHNFTKNEIMWFIQNVGKFNTQNIMMTILPGYPKYIDRVSYYILNEEKCRALIDDLNEPEVLKDSMKIKILSKSFDDKATQLKNDLESKGYSNVNLGRVSKLESSEVELKRVNRKYLELLKNDIDLSTYQVVYSPDYSDKFDVYIKVKLEHHHHHH”, the protein production result is on record as “not failed”.

As to “MRADRSMLGPSLHRDQIMAMNRVQFQAGLSLPAFLKRYGNAQQCEQALEISRWPQGFVCPHCAATAHSRFQRHGTTYWQCTACYRQTSLRSGTVMDNSKLPLRTWLLGMYLLGQSKTNLSALELMRHLGVSYPTAWPMKHKLMQAMTQREANRKLGGIVQLDDAYLGGERNGGKAGRGSENKRLFVIAVETTEDGRPLRAVMDPVPGFTKAALSEWIGQRLHPGADVYSDGLGAFRALEAEHAHTVIEGSGRSRCEAENARWVNVVLSNLKRSLDGAYHAFKYAQRYLAETMWRFNRRFDLTRLVPSLLAAAAASKPWSERALRDVTMFTAESAC”, the protein production result is reported as “failed”.

Take “MAYDDMGFPVSVSGPARRVVSLVPSLTEAIAHTRREALVGATDWCTHPAGLDVARVRGTKNPDRAAIAALRPDLVIANKEENRELDVRMLRAAGIPVWVTVIQTVPQALDSLTRLFTEALCWPLPDWLVEARRLWSHPLPPVRARVAIPVWRDPWMVVGSATFTGDLARRLGLANVFADHPERYPKVALADIDRDDVDLVVLPDEPYAFTPQDGPEAFRCAPTVLVSGRLLTWYGPSLLHAKEGLAALVQ”: the protein production result is “failed”.

Take “MVKVLTACGNGMGSSMVIKMKVENALRQLGVSDIESASCSVGEAKGLASNYDIVVASNHLIHELDGRTNGKLIGLDNLMDDNEIKTKLEEALK”: the protein production result is “failed”.

“MKTLCTHSLPKEKMPYLLRSGEGERYLFGRQVATVMANGRSTGDLFEIVLLSGGKGDAFPLHVHKDTHEGILVLDGKLELTLDGERYLLISGDYANIPAGTPHSYRMQSHRTRLVSYTMKGNVAHLYSVIGNPYDHAEHPPYASEEVSNERFAEAAAVADIVFLDEAKPACSAKLAELTELPDGAVPYVLESGEGDRLLTGDQLHRIVAAQKNTDGQFIVVSSEGPKGDRIVDHYHEYHTETFYCLEGQMTMWTDGQEIQLNPGDFLHVPANTVHSYRLDSHYTKMVGVLVPGLFEPFFRTLGDPYEGHIFPCEPQALRFDRILQNIEALDLKVMKP”: the protein production entry is listed as “not failed”.

On to “MPFGYGLSYGTDFSQEIVSTEQNEDSVTLKVHAANNGTKAGKDVVQVYYNPPYTDFDAKNSIEKSTVNLIAFEKTDDIQPGAAQDITVTVTKEDMASYSYAHENSDGTKGAYLLEQGDYALSINKTAHEEYQSVTVNVPQTIWYDNDNPRQSDKDGQAILDDQGDPTNEPANGDTFKAASNLFQDMTDHMSKTSQLTRANGALSNTATFPTKEEMADISAAFNAKTDDEGRLILQQMDLDTDTTLGNTAGSKVYTTEKPTSNADNGLTLSDLRGVDFNDTKWDQLLDQLEWPSRMPE”, for which the protein production result is given as “failed”.

“METRASYILVGVFTLLAVTGALAFVLWTAGRGEGKAMAAYDVHFSGNVMGLSVASDVFFNGVKVGAVKQITLNPDDPAKVKVRIEIDATTPVREDSVASLEGRGLTGVSVVQITGGSPHAPLLVGTAGEVPVIASRASRLEELFAGMPQLVGSGNELVNRLADVLNAENRAALASTFHALDTVTARMAARADSLDRIITNMDTTTRRLANASAGLETLAGDMRDLTRGDMRDSIVAVGNTARRLDALLAAAEPGVTGFSTEGLEDMRRLLIESRHLVTTLNRMAQRMESDPRRFMFGNQLPEYEER”: the protein production entry is “failed”.

Take “MREYNNPSDFKSFHDFVASYMKTYSRRLEIGTFRHHKSCMRKFKEYCEGLQFHELTEDFLRDYLIYMKKTLCNADSTAQRNLSTIKIYVSAAIKKGYMENDPFKDFGVKRLEHHHHHH”: the protein production entry is “not failed”.

“MATLKVSDSVPAPSDDAEQLRTAFEGWGTNEDLIISILAHRSAEQRKVIRQAYHETYGEDLLKTLDKELSNDFERAILLWTLEPGERDALLANEATKRWTSSNQVLMEVACTRTSTQLLHARQAYHARYKKSLEEDVAHHTTGDFRKLLVSLVTSYRYEGDEVNMTLAKQEAKLVHEKIKDKHYNDEDVIRILSTRSKAQINATFNRYQDDHGEEILKSLEEGDDDDKFLALLRSTIQCLTRPELYFVDVLRSAINKTGTDEGALTRIVTTRAEIDLKVIGEEYQRRNSIPLEKAITKDTRGDYEKMLVALLGEDDA”: the protein production entry was “not failed”.

Regarding “MQAFRAPSLATIDDVCGTRADGYDGAPLRSIPDFAVIVPMHNEEASVETLVAEIVTACQPVGQFEIVVVDDASSDRTVNAVLSLGDRYPMLRLVRHDRQGGQSAAIHSGVQAARAPVICMLDGDGQNPPDNLPALLAPLLSATATSRLGLVAGQRVGRRDTLGKRLSSRFANGLRARILKDGTRDTGCGLKAFRRDAYLALPYFDHHHRYFPALFNRDGWQVAHVDVTHRARLHGNSHYTNIGRALVGIHDLIGVVWLLRRRKRSSWAETFKTETSPLEHHHHHH”, the protein production result was “not failed”.

In the case of “MIIDINRLDRAFDLIKEGVSKGVFPGAVAAVGTRERVIRLESFGNRCLYPEKLSMNKDTLFDLASLTKVVATNTLFMIFLEKGLISVYDNVSYYLEKFKGKNKDDVTIFNLLTHTAGFVPCKPLYKLCKGYEDSIDYICRCGLSYKPGTKCVYSDFSYILLAYILEKIGGDTLDILCDRYIFKPLYMENTTFKPKGNNIAATEIDKKTKKPLIGVCHDENGRFFGGISGHAGLFSDIYDLCKFSNMLVNEGKGIISYASFKAMTTNHTLGLEDNRGYGWCIKGDKNSFMGDIAFPETFGHNGFTGTSLWVDIKNNIYAILLTNRVHPTRDNLRIIRFRRVFSNAVLASLTRLEHHHHHH”, the protein production entry is recorded as “failed”.

As for “MSNCWKNVLVKPACTLLDALEIINDEALRVVLVVDESDSLLGVVTDGDIRRGLLRNLPLTADIAQVMNTTPYTAAIDTPRDELIAIMESNDILSIPLLDNGKVVGLETLHHALSTPVYENPVFIMAGGFGTRLRPLTDHCPKPMLKIGDKPILETVIRNFIKAGFINFYISTHYMPELIHQHFGDGSTLGVKITYVHEQSPLGTGGALGLLPKELPKDLPLIMMNGDVLTKVDFQRLLEFHTEHDADATMCVREYDYQIPYGVIKGEGNRITSMVEKPIQRFFVNAGIYVVSPVVIQSVPENHHIDMPTLLEQHMNKRNNVLMFPIHEYWLDIGRMDDFNRAQTDIYTLGL”, the protein production entry is “failed”.

Regarding “MPPELNWQEIDTVLLDMDGTLLDLEFDSHFWLKQVPETLSQRRGISLEQAHKIIHDEYLAVQHTLNWYCFDYWSERLDLDIYAMTTQAGNRVRLRQDTQPFLASLRERGLQTILLTNAHPHSLAVKIEHTALDQHLDLLLSTHTFGYPKEDQRLWQAVTQHTGLNPARTLFVDDSEKILDAARTFGIRYCLGIENPDSSCADKAFHSHPAINDYRKLLPALELRK”, the protein production entry was “failed”.

Regarding “MAASPSTYAFNGESKETGNDSSKLSKAPATKGGKPHIIFIMSDQHRGDALHCMGNKAVISPNIDKLAQEGSLFVCGYSSAPSSTPARAGLLTGMSPWHHGMLGYGKVASKYKYEMPQMLRDLGYYTFGIGKMHWFPQKALHGFHATLVDESGRSETRDFISDYREWFQLQAPGKNPDLTGIGWNNHNAGTYKLEERLHPTAWTGQTACELIRNYDSDQPLFLKVSFARPHSPYDPPKRYLDMYEKVDIPVPFVGDWCGKYAERKDPERVSKDAAFANLGEEYAVNSRRHYYANVTFIDDQIGQIIQTLKEKGMYENAIICYTADHGDMLGDHYHWRKTYAYEGSAKIPYIIKWPSAMTTQAIRGKRIEQPVELRDFLPTFIELAGGTVPDDMDGKSLVALASGNKNGWRKYIDLEHATCYSADNYWCALTDGKMKYIWFIHTGEEQLFDLSSDPGEQKNLSGNSRYADRLVEMRKAMVDHLQERGTEFVKDGKLAVRDQTLLYSPNYPKD”, the protein production entry is recorded as “failed”.

“MCCCVQFLMSFSSVPSAMPAIDPDALESQVAQRLDPHGSDGVQSALSGVVDLEALEERRYGEVLGAIDQRLTQSRYSLLSMVVAGIYFGLLVGLWLVDGSTWSRIALWLAPTLLVAVYGLYATHQTVRQIRHLSETRALLQILMNGPSADG”: the protein production entry is recorded as “failed”.

For “MEYRITGKGVEISEAIKNYLEKRLDKIDRVIYDDDLVSFNVRIEKDGKNQYVVKFNMNLKGNIINVEERHPDIYTAIDFASDALEKQVKRLKERLKNHPHRSSALVETPLEEPGEFSPSDKVSSVKRVSLLNLDLDEAVMQMDELNHRFLVFRNVNTGEINLLYRDENGDIHLIEMAE”, the protein production result is “failed”.

On to “MITRTIRGILKGAAVFLGLAGAIALLHAFGLDSTLDTAWIDSHIRDHGLQGHLLYIGIAGVLTALAVPRQFVSFLGGYAFGAAFGTLWATVGATLGCMLTFFYARFAGQSLVNRRFSHRVARVNAFLSRNPFTMTFIIRCLPVGNNVLTNLIAGVSSIPAVQFFAGSFIGYIPQHFIFALLGSGVHVSPVLRTVTSALLFVLSSVFGYMLYRRYRIDRDLEEPDDQ”, for which the protein production result is on record as “failed”.

“MRMKPLKRSLPLLLALLLAACAGVKPPAAQPAQPETKPAAESGPDEAKLPKVALSPEILYGVLAGEIAARRGAAGSAGLTYLDLARETRDPRMAQRAAEFCLLSGQLKPATEALQLWIELDPESLPAREQLFITLMRGGKLAESKPLIEELLRLEPQRAPAIFVQLARLSARQDGGSAPSYRLVQELADRYPDLPEARFAVLAAAADNNDQAAVDRELNRLAGIAPKWDLPVAWQVDRLRRKDINEAADFLQRELARRPDAGLELQIAYPRLLVGAKRFPEARSAFEALLKTHPDNPDLLYATGLLAYQMRDLKTADDRLQRALARQYPEQDFVRYTLGQIAEDDRDAERAGNWYRQVGPGQQYLPAQSRLAMLEAADGRLDEALSRLSGLGGTDQEKVSLALLQSQLAREAKQPRRAYDLLTQALQRQPRSSELLYERSLVSDMLGNAGNAERDLRLILKDKPGDAQALNALGYTLANRTSRYQEAYGYIEKALKAEPDNPVIQDSMGWVQYKLGRLDAARKALEKAYAAMQDPEVGAHLGEVLWKQGRRDEALAVWRKELAQHPGHEVIAETMRRLGAKP”: the protein production result is reported as “failed”.

In the case of “MSLSDESFEFDVSVIGLGAMGTIMAQVLLKQGKRVAIWNRSPGKAAALVAAGAHLCESVKAALSASPATIFVLLDNHATHEVLGMPGVARALAHRTIVDYTTNAQDEGLALQGLVNQAGGHYVKGMIVAYPRNVGHRESHSIHTGDREAFEQHRALLEGLAGHTVFLPWDEALAFATVLHAHAFAAMVTFFEAVGAGDRFGLPVSKTARLLLETSRFFVADALEEAVRRLETQDFKGDQARLDVHADAFAHIAQSLHAQGVWTPVFDAVCQVVQRAAAMGYGDQDIAATTKSFAREQEEGHHHHHH”, the protein production entry is on record as “not failed”.
